Here are results for 71 molecules from US20250011363A1, “OPTIMIZED SHORTENED PEPTIDE THAT BINDS TO ACETYLCHOLINE RECEPTOR, AND USE THEREOF” (SKINMED CO., LTD., priority 2021, published 2025).

In assay [1] the target is acetylcholine receptor. Kind of assay: SPR, peptide at 10 uM on immobilised AchR. A general note: SPR reads the build-up and loss of mass on a sensor chip optically.
Assay [2] addresses acetylcholine receptor. Kind of assay: SPR, AchR immobilized on chip, peptide at 10 uM.

B1: 6mer-1-34 (peptide)
peptide: RKWLYK
On to B1, for which, in the assay with acetylcholine receptor [1], the Binding affinity (RU) is 135 RU.

B2: 6mer-1-3 (peptide)
peptide: RKRRSR
B2: the Binding affinity (RU) with acetylcholine receptor [1] was found to be 154 RU.

B3: 6mer-1-41 (peptide)
peptide: RKGITK
B3 returned a Binding affinity (RU) in the assay with acetylcholine receptor [1] of 122 RU.

B4: 6mer-1-50 (peptide)
peptide: KKVRTR
In the assay with acetylcholine receptor [1], B4 gave a Binding affinity (RU) of 139 RU.

B5: 6mer-1-12 (peptide)
peptide: KKQICK
B5: the Binding affinity (RU) in the assay with acetylcholine receptor [1] amounted to 128 RU.

B6: 6mer-2-67 (peptide)
peptide: KLFCKK
In the assay with acetylcholine receptor [2], B6 showed a Binding affinity of 124 RU.

B7: 6mer-2-68 (peptide)
peptide: KGRRRK
Consider B7, for which the Binding affinity in the assay with acetylcholine receptor [2] was determined as 142 RU.

B8: 6mer-1-24 (peptide)
peptide: RKVIRK
Take B8: the Binding affinity (RU) with acetylcholine receptor [1] amounted to 142 RU.

B9: 6mer-1-23 (peptide)
peptide: KRSVSR
Consider B9, for which the Binding affinity (RU) in the assay with acetylcholine receptor [1] came out at 153 RU.

B10: 6mer-2-65 (peptide)
peptide: KGVCKR
For B10, the Binding affinity with acetylcholine receptor [2] turned out to be 148 RU.

B11: 6mer-2-57 (peptide)
peptide: KQRCRR
B11 registered a Binding affinity with acetylcholine receptor [2] of 139 RU.

B12: 6mer-2-1199 (peptide)
peptide: RCTNKR
The molecule B12 displayed a Binding affinity in the assay with acetylcholine receptor [2] of 27 RU.

B13: 6mer-2-60 (peptide)
peptide: RRLSKK
In the assay with acetylcholine receptor [2], B13 returned a Binding affinity of 148 RU.

B14: 6mer-1-22 (peptide)
peptide: RKRLCK
In the assay with acetylcholine receptor [1], B14 showed a Binding affinity (RU) of 126 RU.

B15: 6mer-1-5 (peptide)
peptide: KRQIRK
In the assay with acetylcholine receptor [1], B15 came in with a Binding affinity (RU) of 135 RU.

B16: 6mer-1-46 (peptide)
peptide: KRLYQR
In the case of B16, the Binding affinity (RU) in the assay with acetylcholine receptor [1] came to 142 RU.

B17: 6mer-1-8 (peptide)
peptide: RKRRRK
As for B17, the Binding affinity (RU) with acetylcholine receptor [1] came to 125 RU.

B18: 6mer-1-10 (peptide)
peptide: KRWRLK
Turning to B18, in the assay with acetylcholine receptor [1], the Binding affinity (RU) stood at 139 RU.

B19: 6mer-1-44 (peptide)
peptide: KRQYCK
For the molecule B19, the Binding affinity (RU) with acetylcholine receptor [1] was 148 RU.

B20: 6mer-2-62 (peptide)
peptide: RLVTKR
Regarding B20, the Binding affinity in the assay with acetylcholine receptor [2] is 147 RU.

B21: 6mer-1-31 (peptide)
peptide: KRLYCR
B21 returned a Binding affinity (RU) with acetylcholine receptor [1] of 121 RU.

B22: 6mer-2-52 (peptide)
peptide: KRQRKK
B22 yielded a Binding affinity with acetylcholine receptor [2] of 136 RU.

B23: 6mer-1-11 (peptide)
peptide: KRQFTK
Consider B23, for which the Binding affinity (RU) in the assay with acetylcholine receptor [1] amounted to 139 RU.

B24: 6mer-2-58 (peptide)
peptide: KRLQRK
In the assay with acetylcholine receptor [2], B24 had a Binding affinity of 122 RU.

B25: 6mer-2-1200 (peptide)
peptide: RHHNRR
In the assay with acetylcholine receptor [2], B25 came in with a Binding affinity of 30 RU.

B26: 6mer-1-45 (peptide)
peptide: RKGLTK
In the assay with acetylcholine receptor [1], B26 came in with a Binding affinity (RU) of 145 RU.

B27: 6mer-2-66 (peptide)
peptide: RVIRRR
On to B27, for which, in the assay with acetylcholine receptor [2], the Binding affinity came to 123 RU.

B28: 6mer-1-27 (peptide)
peptide: KRSFTK
Turning to B28, the Binding affinity (RU) with acetylcholine receptor [1] amounted to 142 RU.

B29: 6mer-1-4 (peptide)
peptide: RKSFYK
B29 came in with a Binding affinity (RU) with acetylcholine receptor [1] of 139 RU.

B30: 6mer-1-48 (peptide)
peptide: RRWVRR
In the assay with acetylcholine receptor [1], B30 displayed a Binding affinity (RU) of 124 RU.

B31: 6mer-1-7 (peptide)
peptide: KRQYSK
Take B31: in the assay with acetylcholine receptor [1], the Binding affinity (RU) amounted to 126 RU.

B32: 6mer-1-49 (peptide)
peptide: RRWQTR
As for B32, the Binding affinity (RU) with acetylcholine receptor [1] stood at 149 RU.

B33: 6mer-1-20 (peptide)
peptide: KKSRYK
With B33, the Binding affinity (RU) in the assay with acetylcholine receptor [1] stood at 147 RU.

B34: 6mer-2-64 (peptide)
peptide: KSVSKK
Turning to B34, the Binding affinity with acetylcholine receptor [2] amounted to 136 RU.

B35: 6mer-1-39 (peptide)
peptide: RKVYQK
In the case of B35, the Binding affinity (RU) with acetylcholine receptor [1] was found to be 139 RU.

B36: 6mer-1-17 (peptide)
peptide: KRVQCR
Turning to B36, in the assay with acetylcholine receptor [1], the Binding affinity (RU) is 135 RU.

B37: 6mer-1-30 (peptide)
peptide: RRQVRR
The molecule B37 came in with a Binding affinity (RU) with acetylcholine receptor [1] of 154 RU.

B38: 6mer-2-56 (peptide)
peptide: RSQLRR
B38: in the assay with acetylcholine receptor [2], the Binding affinity worked out at 149 RU.

B39: 6mer-1-38 (peptide)
peptide: RRQQTK
B39 gave a Binding affinity (RU) with acetylcholine receptor [1] of 126 RU.

B40: 6mer-1-28 (peptide)
peptide: RRWISK
The molecule B40 had a Binding affinity (RU) in the assay with acetylcholine receptor [1] of 125 RU.

B41: 6mer-1-29 (peptide)
peptide: KRLISR
Molecule B41 returned a Binding affinity (RU) with acetylcholine receptor [1] of 124 RU.

B42: 6mer-2-61 (peptide)
peptide: RGFQRK
On to B42, for which the Binding affinity with acetylcholine receptor [2] was 148 RU.

B43: 6mer-2-51 (peptide)
peptide: KQFLKK
B43 gave a Binding affinity in the assay with acetylcholine receptor [2] of 139 RU.

B44: 6mer-1-25 (peptide)
peptide: KKLIRR
In turn, B44 showed a Binding affinity (RU) in the assay with acetylcholine receptor [1] of 135 RU.

B45: 6mer-2-59 (peptide)
peptide: RVLSRK
In the assay with acetylcholine receptor [2], B45 displayed a Binding affinity of 123 RU.

B46: 6mer-2-54 (peptide)
peptide: KGRRRR
Take B46: in the assay with acetylcholine receptor [2], the Binding affinity stood at 124 RU.

B47: 6mer-1-47 (peptide)
peptide: KRRLLK
As for B47, in the assay with acetylcholine receptor [1], the Binding affinity (RU) is 149 RU.

B48: 6mer-1-36 (peptide)
peptide: RKWQQK
B48 returned a Binding affinity (RU) with acetylcholine receptor [1] of 124 RU.

B49: 6mer-1-2 (peptide)
peptide: RKQILR
In the assay with acetylcholine receptor [1], B49 registered a Binding affinity (RU) of 142 RU.

B50: 6mer-1-35 (peptide)
peptide: RRGRQR
Molecule B50 returned a Binding affinity (RU) in the assay with acetylcholine receptor [1] of 136 RU.

B51: 6mer-1-40 (peptide)
peptide: KRSQYK
Consider B51, for which the Binding affinity (RU) with acetylcholine receptor [1] was 121 RU.

B52: 6mer-1-1 (peptide)
peptide: KKVISK
B52: in the assay with acetylcholine receptor [1], the Binding affinity (RU) worked out at 122 RU.

B53: 6mer-1-21 (peptide)
peptide: RKWYLK
Regarding B53, the Binding affinity (RU) with acetylcholine receptor [1] was determined as 137 RU.

B54: 6mer-1-52 (peptide)
peptide: RRRFLR
B54: the Binding affinity (RU) in the assay with acetylcholine receptor [1] came out at 131 RU.

B55: 6mer-1-13 (peptide)
peptide: KRQIQR
For B55, in the assay with acetylcholine receptor [1], the Binding affinity (RU) came to 147 RU.

B56: 6mer-1-19 (peptide)
peptide: KRSFYR
With B56, the Binding affinity (RU) with acetylcholine receptor [1] turned out to be 135 RU.

B57: 6mer-2-55 (peptide)
peptide: RLFYKK
For B57, the Binding affinity with acetylcholine receptor [2] came out at 125 RU.

B58: 6mer-1-15 (peptide)
peptide: KRQICK
In the assay with acetylcholine receptor [1], B58 registered a Binding affinity (RU) of 123 RU.

B59: 6mer-1-9 (peptide)
peptide: RKSFCK
Turning to B59, in the assay with acetylcholine receptor [1], the Binding affinity (RU) came out at 154 RU.

B60: 6mer-1-26 (peptide)
peptide: KKRVLR
In the assay with acetylcholine receptor [1], B60 gave a Binding affinity (RU) of 123 RU.

B61: 6mer-2-63 (peptide)
peptide: KSFRKR
B61: in the assay with acetylcholine receptor [2], the Binding affinity came to 121 RU.

B62: 6mer-2-53 (peptide)
peptide: KSLSRR
In the case of B62, the Binding affinity in the assay with acetylcholine receptor [2] came to 125 RU.

B63: 6mer-1-16 (peptide)
peptide: KKQYCR
In the case of B63, the Binding affinity (RU) in the assay with acetylcholine receptor [1] turned out to be 136 RU.

B64: 6mer-1-6 (peptide)
peptide: RKSRCK
As for B64, the Binding affinity (RU) in the assay with acetylcholine receptor [1] was 153 RU.

B65: 6mer-1-14 (peptide)
peptide: RKRFLK
For B65, in the assay with acetylcholine receptor [1], the Binding affinity (RU) stood at 145 RU.

B66: 6mer-1-32 (peptide)
peptide: RKGQCR
The molecule B66 gave a Binding affinity (RU) with acetylcholine receptor [1] of 121 RU.

B67: 6mer-1-51 (peptide)
peptide: RRVLYK
In turn, B67 displayed a Binding affinity (RU) in the assay with acetylcholine receptor [1] of 127 RU.

B68: 6mer-1-33 (peptide)
peptide: KKSYCR
On to B68, for which the Binding affinity (RU) in the assay with acetylcholine receptor [1] is 154 RU.

B69: 6mer-1-18 (peptide)
peptide: KKQFTR
Consider B69, for which the Binding affinity (RU) in the assay with acetylcholine receptor [1] is 145 RU.

B70: 6mer-1-42 (peptide)
peptide: KKRIQR
For B70, in the assay with acetylcholine receptor [1], the Binding affinity (RU) was 139 RU.

B71: 6mer-1-37 (peptide)
peptide: KKWVLR
B71 registered a Binding affinity (RU) with acetylcholine receptor [1] of 121 RU.
